Measured values from article PMC6297355.
pKd: −log10 of the molar value.

Assays:
[1] = target: 5-carboxyfluorescein (5-FAM) labeled LVEALY tracer; assay: fluorescence polarisation (Δmp read-out, fluorescent peptide tracer); settings: 30 µM BAG3P209L; 30 µM BAG3WT; parent: est. 2; read off a plot
[2] = target: BAG3^P209L (recombinant) (human) (UniProt O95817); assay: ITC; NBD (100 μM) in the syringe titrated into 10 μM BAG3 in the cell; 25 mM HEPES, 5 mM MgCl2, 100 mM KCl, pH 7.5; 25 °C; one-site binding model
[3] = target: BAG3^WT (recombinant) (human) (UniProt O95817); assay: as above
BAG3^WT (recombinant) (human), sequence (O95817 whole entry): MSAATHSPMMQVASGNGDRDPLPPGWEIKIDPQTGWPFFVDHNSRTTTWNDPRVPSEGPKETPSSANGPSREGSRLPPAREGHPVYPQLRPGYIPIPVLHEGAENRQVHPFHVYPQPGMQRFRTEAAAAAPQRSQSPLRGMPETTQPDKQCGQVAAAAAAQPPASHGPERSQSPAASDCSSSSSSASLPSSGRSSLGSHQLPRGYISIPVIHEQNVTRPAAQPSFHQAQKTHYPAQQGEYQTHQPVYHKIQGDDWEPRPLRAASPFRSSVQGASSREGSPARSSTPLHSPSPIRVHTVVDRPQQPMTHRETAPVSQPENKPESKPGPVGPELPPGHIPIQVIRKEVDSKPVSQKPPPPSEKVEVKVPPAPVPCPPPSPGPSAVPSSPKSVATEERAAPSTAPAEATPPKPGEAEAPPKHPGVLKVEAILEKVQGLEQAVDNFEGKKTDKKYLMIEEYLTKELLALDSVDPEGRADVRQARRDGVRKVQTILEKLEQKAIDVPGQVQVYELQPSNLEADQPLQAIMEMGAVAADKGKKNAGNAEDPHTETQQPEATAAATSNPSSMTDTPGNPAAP

BAG3^P209L (recombinant) (human), sequence (O95817 whole entry P209L): as the sequence (O95817 whole entry) above, with P209L counted along it
BAG3^WT (recombinant), O95817 P209L, sequence (O95817 whole entry P209L): as the sequence (O95817 whole entry) above, with P209L counted along it

response [1]	pKd [2]	pKd [3]	Substance
54 Δmp			BAG3^WT (recombinant), O95817 P209L
	6.52	6.52	HSPA8^NBD (nucleotide-binding domain of HSPA8) (domain or fragment)
